These results are taken from US20190330320A1.

In experiment [1] the target is pathological hyperphosphorylated tau from human Alzheimer's disease brain (AD-P3 antigens) (human) (UniProt P10636). Nature of the experiment: fluid phase inhibition of AD-P3 tau capture on MSD plates coated with mouse C10-2; two-site fit, low affinity part.
For experiment [2] the target is unchanged. Briefly: fluid phase inhibition of AD-P3 tau capture on MSD plates coated with mouse C10-2; two-site fit, high affinity part.
Experiment [3] shares this target. Briefly: fluid phase inhibition of AD-P3 tau capture on MSD plates coated with mouse C10-2; two-site fit.
Experiment [4] has as its target hyperphosphorylated human tau P301L (4R0N) from rTg4510 mouse brain (64 and 70 kDa species) (human) (UniProt P10636). Nature of the experiment: binding to P301L human mutant tau isolated from 10 month old Tg4510 mice.
Experiment [5] concerns the target pathological hyperphosphorylated tau from human Alzheimer's disease brain (AD-P3 antigens) (human) (UniProt P10636). Nature of the experiment: fluid phase inhibition of Ptau antigen capture in C10-2 coated plate.

Where only a bound is given, the exact number is not on record here.

pathological hyperphosphorylated tau from human Alzheimer's disease brain (AD-P3 antigens) (human), sequence (P10636 other isoform, or with tags, fused parts or gaps limits assumed): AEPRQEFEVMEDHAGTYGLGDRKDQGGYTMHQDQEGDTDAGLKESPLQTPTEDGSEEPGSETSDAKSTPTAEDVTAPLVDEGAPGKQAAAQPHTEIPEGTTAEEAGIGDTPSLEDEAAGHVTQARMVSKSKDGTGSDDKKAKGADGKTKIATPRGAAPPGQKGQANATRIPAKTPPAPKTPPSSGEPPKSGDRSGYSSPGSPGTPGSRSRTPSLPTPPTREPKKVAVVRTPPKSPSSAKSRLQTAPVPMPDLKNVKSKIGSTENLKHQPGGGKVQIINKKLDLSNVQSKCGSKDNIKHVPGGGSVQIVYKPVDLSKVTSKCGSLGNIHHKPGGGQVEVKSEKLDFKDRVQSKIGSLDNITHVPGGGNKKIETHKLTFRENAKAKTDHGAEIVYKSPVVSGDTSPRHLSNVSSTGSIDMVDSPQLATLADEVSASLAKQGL
hyperphosphorylated human tau P301L (4R0N) from rTg4510 mouse brain (64 and 70 kDa species) (human), sequence (P10636 other isoform, or with tags, fused parts or gaps P301L P301L): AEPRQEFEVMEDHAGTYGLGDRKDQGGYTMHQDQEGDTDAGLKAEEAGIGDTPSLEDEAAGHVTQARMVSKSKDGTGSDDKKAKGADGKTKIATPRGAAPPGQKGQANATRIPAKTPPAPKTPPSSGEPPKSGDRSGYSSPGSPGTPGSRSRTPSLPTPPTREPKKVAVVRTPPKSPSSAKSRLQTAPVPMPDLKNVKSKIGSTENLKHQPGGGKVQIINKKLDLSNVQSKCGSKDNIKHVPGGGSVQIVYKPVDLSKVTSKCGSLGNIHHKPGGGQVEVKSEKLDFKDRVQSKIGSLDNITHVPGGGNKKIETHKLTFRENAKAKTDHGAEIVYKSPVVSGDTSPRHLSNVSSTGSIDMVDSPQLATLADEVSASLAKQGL
IPN002 (antibody), sequence (VH): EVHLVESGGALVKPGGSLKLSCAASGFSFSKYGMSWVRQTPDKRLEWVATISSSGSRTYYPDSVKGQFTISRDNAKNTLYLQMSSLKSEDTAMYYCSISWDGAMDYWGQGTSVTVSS
IPN002 (antibody), sequence (VL): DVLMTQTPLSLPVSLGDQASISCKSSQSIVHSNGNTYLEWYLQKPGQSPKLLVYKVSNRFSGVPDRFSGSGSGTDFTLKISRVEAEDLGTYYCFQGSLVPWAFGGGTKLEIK
HJ8.5 (antibody), sequence (VH): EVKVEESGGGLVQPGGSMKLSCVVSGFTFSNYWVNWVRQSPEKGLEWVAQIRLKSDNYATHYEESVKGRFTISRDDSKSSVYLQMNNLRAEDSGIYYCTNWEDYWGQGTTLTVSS
HJ8.5 (antibody), sequence (VL): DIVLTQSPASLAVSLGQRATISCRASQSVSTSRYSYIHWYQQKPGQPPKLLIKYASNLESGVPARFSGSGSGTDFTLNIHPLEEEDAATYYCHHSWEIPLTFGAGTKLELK

In the case of Antibody C10-2 (humanized C10-2), the results for the half-maximal inhibitory concentration (IC50) in experiment [1] and in experiment [2] were 630 nM and 14 nM, respectively. Also, the share of the high affinity binding in the total binding in experiment [3] is below 25%. Turning to HJ8.5 (antibody), in experiment [4], the TG/wt (binding to P301L tau from Tg4510 mice over wild type) was found to be 51. IPN002 (antibody) came in with a TG/wt (binding to P301L tau from Tg4510 mice over wild type) in experiment [4] of 37.

Regarding PHF-13 (antibody), the IC50 (usually the concentration needed to halve the response being measured) in experiment [5] lay within 500 to 1000 nM.
